Assay results from US6355473.
One block for each molecule: values may come before it.

What was measured:
Assay in all cases: cell-based or functional assay
[1] = target: human melanocortin receptor 4 (hMCR4), native form (human) (UniProt P32245)
αF-hSSTR3 (yeast; human) = target: αF-hSSTR3 (yeast; human)
[2] = target: All the receptor forms tested (hNocR, Ste2-hNocR, Inv-hNocR, αF-hNocR) in the stp22 strains

Sequence of αF-hSSTR3 (yeast; human) (P01149 other isoform, or with tags, fused parts or gaps): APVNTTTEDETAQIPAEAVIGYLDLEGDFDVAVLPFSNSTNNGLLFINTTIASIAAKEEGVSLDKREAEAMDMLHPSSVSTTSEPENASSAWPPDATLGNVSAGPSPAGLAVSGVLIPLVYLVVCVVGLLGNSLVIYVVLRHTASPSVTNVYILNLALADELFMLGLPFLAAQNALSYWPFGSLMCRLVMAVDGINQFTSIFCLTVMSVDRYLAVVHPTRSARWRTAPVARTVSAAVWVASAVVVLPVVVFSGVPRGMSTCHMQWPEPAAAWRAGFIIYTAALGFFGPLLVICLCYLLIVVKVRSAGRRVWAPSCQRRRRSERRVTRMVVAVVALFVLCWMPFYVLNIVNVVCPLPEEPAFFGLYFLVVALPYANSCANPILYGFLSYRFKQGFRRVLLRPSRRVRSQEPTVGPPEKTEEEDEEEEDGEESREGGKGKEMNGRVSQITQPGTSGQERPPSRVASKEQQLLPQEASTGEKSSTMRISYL
Sequence of UniProt P32245 (P32245 whole entry): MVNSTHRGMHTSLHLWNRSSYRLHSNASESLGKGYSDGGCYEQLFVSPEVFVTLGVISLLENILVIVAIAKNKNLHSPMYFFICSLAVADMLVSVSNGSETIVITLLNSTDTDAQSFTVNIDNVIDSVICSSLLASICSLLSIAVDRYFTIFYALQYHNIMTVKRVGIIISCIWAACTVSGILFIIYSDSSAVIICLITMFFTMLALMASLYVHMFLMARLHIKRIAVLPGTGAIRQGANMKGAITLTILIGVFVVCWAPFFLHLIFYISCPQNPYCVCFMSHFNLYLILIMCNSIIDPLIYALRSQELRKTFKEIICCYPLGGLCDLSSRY

Specific ligand-induced levels of β-galactosidase activity (FUS1-lacZ), stp22 strain compared with wild type [1]: 2 fold
Molecule: NDP-α-MSH (peptide)

decrease of EC50 of FUS1-lacZ induction, stp22 strain compared with wild type (αF-hSSTR3 (yeast; human)): 50% | levels of FUS1-lacZ induction (β-galactosidase activity), stp22 strain compared with wild type (αF-hSSTR3 (yeast; human)): 2 fold
Molecule: AGCKNFFWKTFTSC (peptide, UniProt P61278 103-116, looked up) [Somatostatin-14]

maximal increase in the levels of β-galactosidase activity (FUS1-lacZ induction), stp22 strains [2]: 10 to 40 fold
Molecule: FGGFTGARKSARKLANQ (peptide, UniProt Q13519 130-146, looked up) [nociceptin]
